Experiments:
AncSZ = experiment: phosphorylation enrichment, bacterial display (enrichment ratio); higher = better substrate or ligand; peptides without Tyr show the background
EPHB1 = EPHB1 (UniProt P54762); experiment: as above
EPHB2 = EPHB2 (UniProt P29323); experiment: as above
FGFR1 = FGFR1 (UniProt P11362); experiment: as above
FGFR3 = FGFR3 (UniProt P22607); experiment: as above
Fer (mouse) = experiment: as above
Fes = Fes (UniProt P07332); experiment: as above
Fyn = Fyn (UniProt P06241); experiment: as above
Hck = Hck (UniProt P08631); experiment: as above
Jak2 = Jak2 (UniProt O60674); experiment: as above
MERTK = MERTK (UniProt Q12866); experiment: as above
c-Abl (mouse) = experiment: as above
c-Src = experiment: as above
Grb2 SH2 = Grb2 SH2 (UniProt P62993); experiment: SH2 binding enrichment of the phosphorylated peptide, bacterial display (enrichment ratio); higher = better substrate or ligand; peptides without Tyr show the background
SHP2-C SH2 = experiment: as above
c-Src SH2 = experiment: as above
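For SH2 binding enrichment of the phosphorylated peptide, bacterial display in this document: peptide library displayed on the E. coli surface as eCPX fusions, selected cells deep-sequenced, score is each peptide's frequency after selection divided by its frequency in the input.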
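For phosphorylation enrichment, bacterial display in this document: 11-residue human phosphosite peptides and single-mutation variants displayed on the E. coli surface, counted by deep sequencing, each peptide's frequency after selection divided by its frequency in the unselected input library; frequency after pTyr selection over input frequency; kinase dosed for 20-30% of maximal phosphorylation in three min.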

Chain of EPHB1 (P54762 whole entry, looked up): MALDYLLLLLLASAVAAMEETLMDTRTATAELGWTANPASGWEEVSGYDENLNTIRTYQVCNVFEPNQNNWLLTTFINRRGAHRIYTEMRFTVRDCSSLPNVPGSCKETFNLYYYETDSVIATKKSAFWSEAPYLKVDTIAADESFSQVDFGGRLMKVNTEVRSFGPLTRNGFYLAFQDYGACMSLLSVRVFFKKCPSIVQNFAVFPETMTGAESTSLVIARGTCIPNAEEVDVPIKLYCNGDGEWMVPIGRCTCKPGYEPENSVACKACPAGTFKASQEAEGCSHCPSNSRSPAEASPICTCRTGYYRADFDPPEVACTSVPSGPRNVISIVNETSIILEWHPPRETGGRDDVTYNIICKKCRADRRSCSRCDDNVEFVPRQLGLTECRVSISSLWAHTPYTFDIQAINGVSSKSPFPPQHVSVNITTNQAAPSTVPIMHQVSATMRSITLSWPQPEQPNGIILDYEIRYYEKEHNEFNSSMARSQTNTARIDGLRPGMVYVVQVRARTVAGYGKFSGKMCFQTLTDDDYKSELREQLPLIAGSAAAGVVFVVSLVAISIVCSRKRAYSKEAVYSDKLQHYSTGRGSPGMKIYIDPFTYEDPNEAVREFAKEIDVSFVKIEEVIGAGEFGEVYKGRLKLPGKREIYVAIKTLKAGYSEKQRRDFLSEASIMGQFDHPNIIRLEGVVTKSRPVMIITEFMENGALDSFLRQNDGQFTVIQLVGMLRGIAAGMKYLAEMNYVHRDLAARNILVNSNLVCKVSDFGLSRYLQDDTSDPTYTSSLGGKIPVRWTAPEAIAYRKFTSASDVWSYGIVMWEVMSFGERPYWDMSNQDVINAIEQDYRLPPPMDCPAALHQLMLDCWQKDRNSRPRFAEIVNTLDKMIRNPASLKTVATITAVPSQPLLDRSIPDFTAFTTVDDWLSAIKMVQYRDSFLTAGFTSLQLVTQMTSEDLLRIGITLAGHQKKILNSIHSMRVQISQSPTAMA
Chain of EPHB2 (P29323 whole entry, looked up): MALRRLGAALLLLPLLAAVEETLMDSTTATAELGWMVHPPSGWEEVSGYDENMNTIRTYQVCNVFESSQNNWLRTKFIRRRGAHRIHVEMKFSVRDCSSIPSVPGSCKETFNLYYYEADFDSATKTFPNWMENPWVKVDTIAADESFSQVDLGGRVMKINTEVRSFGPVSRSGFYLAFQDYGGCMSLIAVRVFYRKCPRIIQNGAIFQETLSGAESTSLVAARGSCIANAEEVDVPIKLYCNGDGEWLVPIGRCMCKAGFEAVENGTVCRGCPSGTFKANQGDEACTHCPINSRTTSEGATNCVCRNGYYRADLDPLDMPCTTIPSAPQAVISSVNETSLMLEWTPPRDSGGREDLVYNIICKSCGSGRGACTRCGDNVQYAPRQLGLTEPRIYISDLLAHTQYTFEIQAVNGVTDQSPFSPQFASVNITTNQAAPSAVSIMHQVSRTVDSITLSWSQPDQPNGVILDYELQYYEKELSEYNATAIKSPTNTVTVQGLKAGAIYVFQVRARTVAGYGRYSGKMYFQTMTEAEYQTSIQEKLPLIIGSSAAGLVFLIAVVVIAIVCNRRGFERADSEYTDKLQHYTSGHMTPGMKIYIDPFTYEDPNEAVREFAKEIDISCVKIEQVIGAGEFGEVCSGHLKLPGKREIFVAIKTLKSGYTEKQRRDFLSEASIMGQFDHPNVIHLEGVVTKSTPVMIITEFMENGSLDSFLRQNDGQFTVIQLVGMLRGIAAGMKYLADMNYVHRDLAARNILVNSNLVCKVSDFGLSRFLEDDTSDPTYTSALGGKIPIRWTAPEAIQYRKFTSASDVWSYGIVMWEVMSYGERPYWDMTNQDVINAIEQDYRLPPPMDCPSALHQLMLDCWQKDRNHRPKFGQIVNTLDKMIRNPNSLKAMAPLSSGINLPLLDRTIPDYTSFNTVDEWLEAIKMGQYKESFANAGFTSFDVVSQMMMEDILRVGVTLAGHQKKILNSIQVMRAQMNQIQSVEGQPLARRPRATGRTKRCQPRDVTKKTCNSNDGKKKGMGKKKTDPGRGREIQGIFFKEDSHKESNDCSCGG
Chain of Grb2 SH2 (P62993 whole entry, looked up): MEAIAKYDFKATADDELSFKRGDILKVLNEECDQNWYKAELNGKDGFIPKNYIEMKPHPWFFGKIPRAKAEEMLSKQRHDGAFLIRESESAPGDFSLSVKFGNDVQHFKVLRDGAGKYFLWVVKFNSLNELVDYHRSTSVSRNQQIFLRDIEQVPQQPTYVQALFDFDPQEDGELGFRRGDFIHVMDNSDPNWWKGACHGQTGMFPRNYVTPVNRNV
Chain of Jak2 (O60674 whole entry, looked up): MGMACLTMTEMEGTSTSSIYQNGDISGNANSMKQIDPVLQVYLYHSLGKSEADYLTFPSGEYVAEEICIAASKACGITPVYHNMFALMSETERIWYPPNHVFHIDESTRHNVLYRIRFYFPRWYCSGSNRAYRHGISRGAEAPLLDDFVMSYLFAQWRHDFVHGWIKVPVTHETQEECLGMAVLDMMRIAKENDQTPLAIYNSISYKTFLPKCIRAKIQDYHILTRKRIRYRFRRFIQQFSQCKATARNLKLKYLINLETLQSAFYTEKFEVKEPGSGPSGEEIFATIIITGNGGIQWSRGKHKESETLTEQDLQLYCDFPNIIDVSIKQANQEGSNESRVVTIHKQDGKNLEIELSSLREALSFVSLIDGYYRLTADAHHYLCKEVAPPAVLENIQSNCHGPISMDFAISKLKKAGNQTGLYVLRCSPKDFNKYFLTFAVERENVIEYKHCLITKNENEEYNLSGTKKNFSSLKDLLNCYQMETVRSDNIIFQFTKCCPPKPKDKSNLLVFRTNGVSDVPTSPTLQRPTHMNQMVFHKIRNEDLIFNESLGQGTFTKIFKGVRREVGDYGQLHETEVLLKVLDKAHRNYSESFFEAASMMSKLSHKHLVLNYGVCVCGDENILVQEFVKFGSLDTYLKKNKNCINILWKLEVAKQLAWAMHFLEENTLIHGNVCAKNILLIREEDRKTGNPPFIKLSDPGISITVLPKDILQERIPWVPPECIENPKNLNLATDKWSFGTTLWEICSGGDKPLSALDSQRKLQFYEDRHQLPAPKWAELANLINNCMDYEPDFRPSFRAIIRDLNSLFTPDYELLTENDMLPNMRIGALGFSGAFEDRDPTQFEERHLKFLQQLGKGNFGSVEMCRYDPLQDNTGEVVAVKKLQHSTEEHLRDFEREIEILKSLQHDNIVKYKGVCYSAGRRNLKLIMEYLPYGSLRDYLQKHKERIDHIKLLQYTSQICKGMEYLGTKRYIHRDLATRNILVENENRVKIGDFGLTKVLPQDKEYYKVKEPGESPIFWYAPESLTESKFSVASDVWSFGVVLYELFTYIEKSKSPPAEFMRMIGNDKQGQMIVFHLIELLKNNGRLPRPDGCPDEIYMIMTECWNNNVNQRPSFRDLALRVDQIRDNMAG
Chain of MERTK (Q12866 whole entry, looked up): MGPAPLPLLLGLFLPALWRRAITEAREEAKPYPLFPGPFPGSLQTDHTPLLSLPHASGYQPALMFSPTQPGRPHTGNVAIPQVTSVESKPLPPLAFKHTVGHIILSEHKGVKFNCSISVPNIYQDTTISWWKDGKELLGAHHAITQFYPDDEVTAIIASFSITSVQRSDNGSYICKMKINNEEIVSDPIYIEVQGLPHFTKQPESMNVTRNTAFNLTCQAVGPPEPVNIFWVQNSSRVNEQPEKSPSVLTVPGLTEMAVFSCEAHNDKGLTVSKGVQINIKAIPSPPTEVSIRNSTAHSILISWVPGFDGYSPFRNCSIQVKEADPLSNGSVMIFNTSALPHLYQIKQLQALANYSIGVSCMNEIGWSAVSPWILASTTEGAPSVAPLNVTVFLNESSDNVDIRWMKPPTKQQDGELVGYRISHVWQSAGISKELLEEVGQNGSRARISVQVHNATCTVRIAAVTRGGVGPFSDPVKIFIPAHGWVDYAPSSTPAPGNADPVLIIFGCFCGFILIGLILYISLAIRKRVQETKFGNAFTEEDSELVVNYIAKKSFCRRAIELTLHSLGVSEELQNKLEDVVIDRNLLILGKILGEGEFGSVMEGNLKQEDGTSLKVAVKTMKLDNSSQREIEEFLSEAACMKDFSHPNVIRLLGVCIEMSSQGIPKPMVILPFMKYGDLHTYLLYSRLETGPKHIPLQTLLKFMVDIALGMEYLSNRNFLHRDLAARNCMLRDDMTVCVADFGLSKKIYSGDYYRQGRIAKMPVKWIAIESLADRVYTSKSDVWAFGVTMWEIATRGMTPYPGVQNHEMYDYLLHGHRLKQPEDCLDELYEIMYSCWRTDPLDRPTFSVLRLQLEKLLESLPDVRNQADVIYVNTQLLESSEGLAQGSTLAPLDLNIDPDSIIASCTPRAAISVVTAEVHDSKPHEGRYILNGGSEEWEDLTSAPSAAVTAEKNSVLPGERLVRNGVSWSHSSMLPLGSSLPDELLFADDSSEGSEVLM
Chain of Hck (P08631 whole entry, looked up): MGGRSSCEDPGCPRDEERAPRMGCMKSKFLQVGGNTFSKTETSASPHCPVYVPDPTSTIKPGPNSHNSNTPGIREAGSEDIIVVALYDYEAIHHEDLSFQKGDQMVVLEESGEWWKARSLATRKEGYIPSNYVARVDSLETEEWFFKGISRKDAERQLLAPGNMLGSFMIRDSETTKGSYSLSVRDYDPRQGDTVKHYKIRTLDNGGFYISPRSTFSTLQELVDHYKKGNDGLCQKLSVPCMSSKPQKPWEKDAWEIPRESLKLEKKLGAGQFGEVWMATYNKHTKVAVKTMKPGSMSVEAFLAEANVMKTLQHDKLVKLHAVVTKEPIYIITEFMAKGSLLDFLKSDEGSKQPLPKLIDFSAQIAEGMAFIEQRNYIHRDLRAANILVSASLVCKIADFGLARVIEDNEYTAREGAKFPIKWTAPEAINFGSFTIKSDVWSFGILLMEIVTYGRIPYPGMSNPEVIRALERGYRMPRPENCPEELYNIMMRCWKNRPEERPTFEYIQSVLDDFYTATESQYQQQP

Sequence | phosphorylation enrichment (AncSZ) | phosphorylation enrichment (EPHB1) | phosphorylation enrichment (EPHB2) | phosphorylation enrichment (FGFR1) | phosphorylation enrichment (FGFR3) | phosphorylation enrichment (Fer (mouse)) | phosphorylation enrichment (Fes) | phosphorylation enrichment (Fyn) | phosphorylation enrichment (Hck) | phosphorylation enrichment (Jak2) | phosphorylation enrichment (MERTK) | phosphorylation enrichment (c-Abl (mouse)) | phosphorylation enrichment (c-Src) | SH2 binding enrichment (Grb2 SH2) | SH2 binding enrichment (SHP2-C SH2) | SH2 binding enrichment (c-Src SH2)
SLFNGYVFSGV [NEIL3_Y71_YF] | 0.779 | 0.514 | 0.567 | 0.562 | 0.584 | 0.494 | 0.77 | 0.451 | 0.555 | 0.908 | 0.472 | 0.624 | 0.418 | 0.71 | 0.719 | 0.967
SLFNGYVYSGV [NEIL3_Y71] | 1.04 | 0.555 | 0.66 | 0.624 | 0.634 | 0.864 | 0.978 | 5.75 | 4.49 | 1.58 | 0.929 | 0.695 | 4.91 | 1.03 | 2.5 | 1.91
SLLPDYEDEEE [ZNF830_Y159] | 1.47 | 0.744 | 0.829 | 0.583 | 0.782 | 0.64 | 1.28 | 0.646 | 0.673 | 1.01 | 0.631 | 0.647 | 0.556 | 0.942 | 0.776 | 0.601
SNFRAYATEPQ [TNNI3_Y29_H34Q_YF] | 0.577 | 0.468 | 0.408 | 0.355 | 0.494 | 0.442 | 0.869 | 0.427 | 0.518 | 0.565 | 0.477 | 0.585 | 0.346 | 0.806 | 0.556 | 0.419
SQSKGYRPKLY [SIPA1L3_Y1376_G1371S] | 0.719 | 0.336 | 0.337 | 0.424 | 0.33 | 0.364 | 0.651 | 0.344 | 0.361 | 0.496 | 0.51 | 0.519 | 0.408 | 0.701 | 0.662 | 0.447
SRGSSYNSIPK [FLNC_Y2625_S2626N] | 0.53 | 0.417 | 0.356 | 0.33 | 0.383 | 0.328 | 0.642 | 0.297 | 0.286 | 0.587 | 0.525 | 0.524 | 0.486 | 0.818 | 0.657 | 0.559
SSMIDYKPLEK [MYOC_Y479_N480K] | 0.562 | 0.357 | 0.421 | 0.377 | 0.425 | 0.322 | 0.538 | 0.434 | 0.413 | 0.495 | 0.441 | 0.459 | 0.384 | 1.19 | 0.565 | 0.476
SSNLYYRCLTA [CNGA3_Y169_W171C] | 1.05 | 0.563 | 0.766 | 0.949 | 1.13 | 0.571 | 1.12 | 0.493 | 0.807 | 1.5 | 1.89 | 0.896 | 0.63 | 0.702 | 0.611 | 0.425
